In assay [1] the target is T1, Mycobacterium tuberculosis thiosulfate sulfurtransferase SseA (Mycobacterium tuberculosis, UniProt P9WHF7 1-297, RED-NHS dye on primary amines (lysine residues), degree of labeling ~0.5, in the MST experiment only).
T1 construct: Tag-free after TEV cleavage; labelled with the RED-NHS dye for MST, unlabelled in ITC and SEC; also called Mtb SseA; Rv3283
T1 sequence: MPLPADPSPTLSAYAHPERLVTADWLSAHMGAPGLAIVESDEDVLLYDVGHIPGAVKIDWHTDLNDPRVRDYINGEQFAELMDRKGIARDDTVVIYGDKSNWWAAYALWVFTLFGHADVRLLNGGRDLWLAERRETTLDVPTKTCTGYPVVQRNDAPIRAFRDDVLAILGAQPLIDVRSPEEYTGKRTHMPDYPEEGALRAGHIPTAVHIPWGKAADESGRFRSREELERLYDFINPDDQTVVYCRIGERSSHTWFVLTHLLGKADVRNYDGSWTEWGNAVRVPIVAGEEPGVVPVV
As to the kind of experiment: ITC; 10 uM SseA in the cell titrated with 100 uM SufE; PBS pH 8.0 (phosphate 20 mM, NaCl 150 mM, DTT 2 mM), 25 °C; single binding site model. As to conditions: both partners purified. Background: ITC needs no label: the signal is the heat of the interaction.

The target in assay [2] is T1, Mycobacterium tuberculosis thiosulfate …. As to the kind of experiment: cell-based or functional assay.
For assay [3] the target is unchanged. As to the kind of experiment: MST; 10 nM SseA labelled with RED-NHS dye, label-free SufE Mtb titrated from 1.5 nM to 50 uM; 25 °C, 50 mM sodium phosphate pH 7.8, 0.05% Tween-20; Monolith NT.115. To be noted: both partners purified.

B1: Mycobacterium tuberculosis SufE-like protein Rv3284 (SufE Mtb) (natural protein)
chain: MTAPASLPAPLAEVVSDFAEVQGQDKLRLLLEFANELPALPSHLAESAMEPVPECQSPLFLHVDASDPNRVRLHFSAPAEAPTTRGFASILAAGLDEQPAADILAVPEDFYTELGLAALISPLRLRGMSAMLARIKRRLREAD
notes: Tag-free after TEV cleavage; also called SseE; not shown: His6, N-terminal, cleaved; GST, N-terminal, cleaved
For B1, in assay [1], the Kd (usually the equilibrium constant for the complex coming apart) turned out to be 3.3 ± 0.6 µM; the dH is -11.6 kcal/mol; the stoichiometry N (commonly the number of molecules, sites or subunits per partner or assembly) was found to be 1. For the same molecule, the “thiosulfate:cyanide sulfurtransferase activity of 10 uM SseA with increasing SufE Mtb (10-100 uM)” value in assay [2] came to 4 fold. The Kd in assay [3] was 3 ± 0.7 µM.

For the origin of these results see article PMC12375888 (Febs Letters, 2025).
